In publication PMC4894983:

Tests used:
[1] = molecular target: T1, CsrA-Strep (Campylobacter jejuni NCTC11168) (UniProt Q0P9F1); experiment: EMSA
T1 sequence: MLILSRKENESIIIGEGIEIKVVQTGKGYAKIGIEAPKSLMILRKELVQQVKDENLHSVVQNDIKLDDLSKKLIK

[2] = tested on: CsrA-Strep (Campylobacter jejuni NCTC11168); experiment: EMSA

| Substance | binding [1] | Kd [2] [nM] |
| --- | --- | --- |
| GGAUUAUAACUAAGAUCAAGGAGGCAGAAAUGAUCAAUCCUAUACAACAAAGUUAUGUGGCAAAUACCGCAUUAAAUACAAAUAGAAUAGAUAAAG [flgM mRNA] | binds |  |
| flaG leader |  | > 350 |
| flgI leader |  | > 350 |
| GGAAAUUAAAAUUUUAAAAAGGAAGUUAAAAUGUCAAAACCAUUAAAUGAAGAGAUUUUUGUUGAAUUUAAAAGUGAUCUAGCUGAAAGAAAAAAUGAAGUUUUGCUUCAAGUUUUAGA [Cj0040 mRNA] | binds |  |
| flaA WT leader |  | 50 |
| flaB leader |  | > 350 |
